The labels stand for the following.
T1: S^35-HSC20 (UniProt Q8IWL3 1-235, S^35 label)
T1 sequence (looked up): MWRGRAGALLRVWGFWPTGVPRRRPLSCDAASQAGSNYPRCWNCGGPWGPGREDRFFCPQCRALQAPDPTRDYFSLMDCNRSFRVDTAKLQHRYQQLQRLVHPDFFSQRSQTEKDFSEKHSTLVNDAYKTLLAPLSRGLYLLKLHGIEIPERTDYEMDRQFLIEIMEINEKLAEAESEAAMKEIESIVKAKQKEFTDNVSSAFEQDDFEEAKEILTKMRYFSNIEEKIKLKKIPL

T2: S^35-SDHB (human, UniProt P21912 1-280, S^35 label)
T2 sequence (looked up): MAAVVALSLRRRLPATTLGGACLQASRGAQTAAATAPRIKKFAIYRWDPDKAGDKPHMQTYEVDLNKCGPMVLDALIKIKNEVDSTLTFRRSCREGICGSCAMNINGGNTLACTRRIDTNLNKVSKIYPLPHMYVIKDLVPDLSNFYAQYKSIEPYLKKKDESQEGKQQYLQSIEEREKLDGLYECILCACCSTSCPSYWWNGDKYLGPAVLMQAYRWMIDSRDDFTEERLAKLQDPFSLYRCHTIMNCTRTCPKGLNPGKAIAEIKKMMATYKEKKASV

B1: SDHB146-218 (domain or fragment, human, UniProt P21912 146-218, looked up)
chain: FYAQYKSIEPYLKKKDESQEGKQQYLQSIEEREKLDGLYECILCACCSTSCPSYWWNGDKYLGPAVLMQAYRW
B2: S^35-labeled FLAG-tagged SDHAF1 wild type (in vitro) (natural protein, human, UniProt A6NFY7 1-115, looked up)
chain: MSRHSRLQRQVLSLYRDLLRAGRGKPGAEARVRAEFRQHAGLPRSDVLRIEYLYRRGRRQLQLLRSGHATAMGAFVRPRAPTGEPGGVGCQPDDGDSPRNPHDSTGAPETRPDGR
modifications: S^35 label
B3: SDHAF1 G57R (in vitro) (natural protein, human, UniProt A6NFY7 1-115, looked up)
chain: B2 chain with G57R
modifications: S^35 label
B4: SDHAF1 second LYR to triple alanines (in vitro) (natural protein, human, UniProt A6NFY7 1-115, looked up)
chain: B2 chain with L53A, Y54A, R55A
modifications: S^35 label
B5: SDHAF1 clone 4 (residues 50–115) (domain or fragment, human, UniProt A6NFY7 50-115, looked up)
chain: IEYLYRRGRRQLQLLRSGHATAMGAFVRPRAPTGEPGGVGCQPDDGDSPRNPHDSTGAPETRPDGR
modifications: also: 35S label
B6: SDHAF1 clone 5 (residues 61–115) (domain or fragment, human, UniProt A6NFY7 61-115, looked up)
chain: LQLLRSGHATAMGAFVRPRAPTGEPGGVGCQPDDGDSPRNPHDSTGAPETRPDGR
modifications: also: 35S label
B7: SDHAF1 clone 2 (residues 40–115) (domain or fragment, human, UniProt A6NFY7 40-115, looked up)
chain: AGLPRSDVLRIEYLYRRGRRQLQLLRSGHATAMGAFVRPRAPTGEPGGVGCQPDDGDSPRNPHDSTGAPETRPDGR
modifications: S^35 label

Numbering of substitutions follows the chain as printed. Names may count otherwise. No end group written: not given here.

The target in the first experiment is B2. Put plainly: pull-down.
For B1, the binding result is “binds”.

A further experiment has as its target T1, S^35-HSC20. Put plainly: pull-down.
With MSRHSRLQRQVLSLYRDLLRAGRGKPGAEARVRAEFRQH (domain or fragment, human, UniProt A6NFY7 1-39, looked up, also: 35S label) [SDHAF1 clone 1 (residues 1–39)], the binding result is given as “binds”.

B2: the binding result is reported as “binds”.

Regarding B3, the binding result is recorded as “binds”.

Take B4: the binding result is listed as “binds”.

With MSRHSRLQRQVLSLYRDLLRAGRGKPGAEARVRAE (domain or fragment, human, UniProt A6NFY7 1-35, looked up, also: 35S label) [SDHAF1 clone 3 (residues 1–35)], the binding result is given as “binds”.

The target in a further experiment is T2, S^35-SDHB. Put plainly: pull-down.
Regarding B5, the binding result is on record as “binds”.

On to B6, for which the binding result is reported as “binds”.

In the case of B7, the binding result was “binds”.

Source of the values: paper PMC4749439 (Cell metabolism, 2015).
